Source: the supplement of paper PMC6755084

B1: F1*; the commonest letter at each place (parent)
chain: GAGACCGCAACTGAAAAGTTGTTATCACTTGTCGTAAGACACTTTGGATGGGTTGAAGTTCTGCACGTAGAAGCAAAAGGC

Variants of: B1
Assay: fraction ligated after 30 min (ligated reads / total reads); higher = more ligase activity
Settings: with F1*sub RNA substrate (template-directed ligation), 42 °C
Method in brief: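 Oligo-pool templates of ligase ribozyme variants were PCR-amplified, T7-transcribed and gel-purified. Ligated and unligated bands were gel-separated, reverse transcribed with barcoded primers, and MiSeq-sequenced; core bases were filtered at quality ≥20. Fraction ligated per variant was ligated reads over total reads.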

Row | Variant | fraction ligated
1 | A39C T49A | 0.706
2 | A39C T49C | 0.159
3 | A39C T49G | 0.737
4 | G38T C42G | 0.845
5 | G38T C42T | 0.851
6 | G38T C42A | 0.842
7 | G38T C40G | 0.82
8 | G38T C40T | 0.805
9 | G38T C40A | 0.836
10 | G38C T49G | 0.255
11 | G38C T49A | 0.233
12 | G38C T49C | 0.0586
13 | A37G T49C | 0.744
14 | A37G T49G | 0.807
15 | A37G T49A | 0.796
16 | A39G A41G | 0.791
17 | A39G A41T | 0.796
18 | A39G A41C | 0.781
19 | G38A G46T | 0.791
20 | G38A G46A | 0.805
21 | G38A G46C | 0.792
22 | A37T G47A | 0.806
23 | A37T G47C | 0.178
24 | A37T G47T | 0.346

Row | Variant | fraction ligated
25 | A37T A41C | 0.785
26 | A37T A41T | 0.815
27 | A37T A41G | 0.799
28 | A37G A57C | 0.82
29 | A37G A57T | 0.823
30 | A37G A57G | 0.859
31 | A37C T44A | 0.84
32 | A37C T44G | 0.859
33 | A37C T44C | 0.843
34 | A37G | 0.857
35 | A37T | 0.853
36 | G38T A56T | 0.826
37 | G38T A56G | 0.806
38 | G38T A56C | 0.745
39 | A37G G46T | 0.806
40 | A37G G46C | 0.81
41 | A37G G46A | 0.818
42 | A37T T45A | 0.787
43 | A37T T45G | 0.408
44 | A37T T45C | 0.768
45 | G38T A39C | 0.79
46 | G38T A39T | 0.817
47 | G38T A39G | 0.798
48 | A37G G50T | 0.785

Row | Variant | fraction ligated
49 | A37G G50A | 0.659
50 | A37G G50C | 0.45
51 | A37G T45A | 0.804
52 | A37G T45G | 0.407
53 | A37G T45C | 0.803
54 | A37G G38C | 0.828
55 | A37G G38A | 0.882
56 | A37G G38T | 0.849
57 | A37G G47C | 0.269
58 | A37G G47T | 0.397
59 | A37G G47A | 0.831
60 | A39C T45G | 0.138
61 | A39C T45C | 0.634
62 | A39C T45A | 0.778
63 | A39G C42T | 0.843
64 | A39G C42G | 0.834
65 | A39G C42A | 0.829
66 | G38T A41C | 0.785
67 | G38T A41G | 0.792
68 | G38T A41T | 0.798
69 | A37C G38T | 0.844
70 | A39G C40A | 0.839
71 | A39G C40G | 0.802
72 | A39G C40T | 0.844

Row | Variant | fraction ligated
73 | A39G G46A | 0.843
74 | A39G G46C | 0.781
75 | A39G G46T | 0.783
76 | G38T | 0.852
77 | G38A | 0.844
78 | G38C | 0.825
79 | A37G A56T | 0.819
80 | A37G A56C | 0.802
81 | A37G A56G | 0.818
82 | G38T T45A | 0.783
83 | G38T T45G | 0.0535
84 | G38T T45C | 0.627
85 | A37G A41T | 0.859
86 | A37G A41C | 0.787
87 | A37G A41G | 0.822
88 | A39C A57G | 0.786
89 | A39C A57T | 0.798
90 | A39C A57C | 0.827
91 | G38C G47T | 0.045
92 | G38C G47C | 0.0356
93 | G38C G47A | 0.306
94 | A37T A48G | 0.804
95 | A37T A48T | 0.675
96 | A37T A48C | 0.763

Row | Variant | fraction ligated
97 | G38A G50T | 0.72
98 | G38A G50C | 0.194
99 | G38A G50A | 0.391
100 | A37T T49C | 0.733
101 | A37T T49A | 0.802
102 | A37T T49G | 0.791
103 | A37G A39G | 0.853
104 | A37G A39C | 0.776
105 | A37G A39T | 0.796
106 | A39C A41C | 0.792
107 | A39C A41T | 0.751
108 | A39C A41G | 0.741
109 | G38C C40G | 0.813
110 | G38C C40A | 0.811
111 | G38C C40T | 0.802
112 | G38A T43A | 0.835
113 | G38A T43G | 0.8
114 | G38A T43C | 0.816
115 | A37T C42G | 0.849
116 | A37T C42T | 0.858
117 | A37T C42A | 0.85
118 | G38A A39C | 0.817
119 | G38A A39G | 0.854
120 | G38A A39T | 0.829

Row | Variant | fraction ligated
121 | A39C G55A | 0.821
122 | A39C G55C | 0.695
123 | A39C G55T | 0.802
124 | A37T A56T | 0.83
125 | A37T A56C | 0.786
126 | A37T A56G | 0.807
127 | A37C T43G | 0.806
128 | A37C T43A | 0.832
129 | A37C T43C | 0.817
130 | G38A A56T | 0.808
131 | G38A A56C | 0.778
132 | G38A A56G | 0.783
133 | A37T T44A | 0.834
134 | A37T T44G | 0.825
135 | A37T T44C | 0.847
136 | A37T A39T | 0.831
137 | A37T A39C | 0.785
138 | A37T A39G | 0.837
139 | G38A C40G | 0.843
140 | G38A C40A | 0.83
141 | G38A C40T | 0.833
142 | A37T G38A | 0.827
143 | A37T G38T | 0.838
144 | A37T G38C | 0.841

Row | Variant | fraction ligated
145 | G38C G46A | 0.791
146 | G38C G46T | 0.697
147 | G38C G46C | 0.523
148 | A37G G55T | 0.834
149 | A37G G55A | 0.846
150 | A37G G55C | 0.833
151 | A39G A57C | 0.821
152 | A39G A57T | 0.829
153 | A39G A57G | 0.823
154 | A37C G46C | 0.795
155 | A37C G46A | 0.78
156 | A37C G46T | 0.785
157 | G38A T49G | 0.785
158 | G38A T49C | 0.245
159 | G38A T49A | 0.782
160 | A37G C42T | 0.857
161 | A37G C42A | 0.859
162 | A37G C42G | 0.857
163 | A37C G47A | 0.796
164 | A37C G47T | 0.406
165 | A37C G47C | 0.444
166 | A37T G46T | 0.784
167 | A37T G46A | 0.807
